In US20160053277A1, “Compositions Having Dicamba Decarboxylase Activity and Methods of Use” (PIONEER HI-BRED INTERNATIONAL, INC., priority 2013, published 2016):

Assays:
[1] = 14C assay with IPTG-induced recombinant E. coli cells: 14CO2 captured from [14C]-carboxyl-labeled dicamba; settings: for decarboxylation activity of dicamba: among the 108 sequences tested, recombinant E. coli cells; for Enzymatic Detection level: dicamba decarboxylation activity of the protein of the given SEQ ID NO, High / Low / No; for Dicamba Decarboxylase Activity: induced recombinant E. coli cells, [14C]-carboxyl-labeled dicamba, 14CO2 capture
[2] = Saturation mutagenesis of SEQ ID NO:109: dicamba decarboxylation activity of point mutants (carbon dioxide released); settings: decarboxylation activity (carbon dioxide released) of point mutant compared with unmutated backbone protein; backbone SEQ ID NO: 109

Molecule	decarboxylation activity of dicamba [1]	Enzymatic Detection level [1]	Dicamba Decarboxylase Activity [1]	Fold Activity [2]
58 (protein, Mycobacterium colombiense) MARVIALEEHYATTEFLRGPGTWLASRPGIVEPAGDLGDGRIAAMDQAGVDLAVLSLAAPGVEQLDPDDAVRLARDCNDQLAAAVRRYPDRLAGFATVPTSAPDRAADELERAVRGLGFPGAVINGHSRGRYLDDPFFEPVLARAAELQAPIYLHPTIPPAGVIESSYAGFAEPVTFALATVGWGWHINTATHALRMILGGVFDRHPSLQMIIGHMGEATSFMLPRFDATLKPELTGLNHPVSSYLRENFHYTFANFNDHATYANLVAQVGIERVAFSADYPFGSMVDARAFLDGLPLSDDERAAISHRNAEKLLGL	showed decarboxylation activity of dicamba	High	High	1.5
81 (protein, listed as Verticillium dahliae) MAASTKPKVVDIHTHMYPPSYIDILTSRTAIPVVRTFPQAADPRLILLDAEQQALDAALQDPTAKPPGRPLTSHYASLDQKIHFMDTHSIDISVVSLANPWLDFIEPKEAAATARSVNDEFEAMCASQPGRLFFFAALPLTAPLPALLEAVRHVAELEHCRGVILGTSGLGSGLDDPELVPVLEAVAAAALTVFLHPHYGLPNDVWGPRASAEYGHVLPLALGFPMETTIAVARMYLAGVFDRVPALRMLLAHSGGTLPFLAGRIESCILHDGQLVAEGKVGAARRTIWDVLREQVYLDAVIYSEIGLKAAIAASGGADRLMFGTDHPFFPPLGTDEQAKKESRINAGGSRPMITGNAMINGHGGLCNHITQSDYQDVVL	showed decarboxylation activity of dicamba	High	High	1.2
79 (protein, Pyrenophora teres) MATTTTPSTLIATLESHLTPTLAFTSPTTSPTQPALHLIPPTTLTKLRNLGPGRVKDMHMLGHSRQIISHIPVAAPPQICSRFNDAIHAATMTNTAKFSVLAVLPTDGMEAAKELARCVSKYRFVGGVIGLNRGLRINGEGWEELWGLAERLRIPIMFREMWPLAFEIVDYQHHLPYSALGPILTQLHTSHTSSPLPLVRLYLSSVFDHYPSLRLVLAHPGSLPSLVPRIESLINSIPATDKPKRSFLDVWQHNIYLTTADAQDMSSLRALLEQIPVDRVLYASNYPFEERGNELMNELRESEFLTNIEWERVAWVNAETLFNLKEAGTKEARQLTTIPSSRS	showed decarboxylation activity of dicamba	High	High	0.9
57 (protein, Collimonas fungivorans) MAKLICVEEHVLDPAVGAATQSLVRAEAPYLPDWGSRVLDGRHVADRSRPHVIAPSESARKALEMGEPRLADMDAASIDMQVLSYGGFPQLLPAAQAIDLNRAANDKLALAAQAHPARFAGFATLPWQAPEAAARELERAVKQLGLKGALINGRPGDTFLDDARYAPILAAFDELKVPLYVHPGLPLPAVQAPYYGGFERELSARLAMFAWGWHNEAGIQVVRMLLAGVFDRHPRLQLISGHWGEMVPFFLQRLEDSIPQEASGLQRPIVQTYREHVYISPSGMFTLPHFQFIHALMGAQRILYSIDYPYQSLDGARAFIERLPISDTDKALIAHRNAERLLHL	showed decarboxylation activity of dicamba	High	High	2
